This experiment concerns the target organic anion transporting polypeptide (OATP) 1B3 (UniProt Q9NPD5).

Here are results for one substance from publication PMC5673231.

UniProt Q9NPD5, sequence (Q9NPD5 whole entry): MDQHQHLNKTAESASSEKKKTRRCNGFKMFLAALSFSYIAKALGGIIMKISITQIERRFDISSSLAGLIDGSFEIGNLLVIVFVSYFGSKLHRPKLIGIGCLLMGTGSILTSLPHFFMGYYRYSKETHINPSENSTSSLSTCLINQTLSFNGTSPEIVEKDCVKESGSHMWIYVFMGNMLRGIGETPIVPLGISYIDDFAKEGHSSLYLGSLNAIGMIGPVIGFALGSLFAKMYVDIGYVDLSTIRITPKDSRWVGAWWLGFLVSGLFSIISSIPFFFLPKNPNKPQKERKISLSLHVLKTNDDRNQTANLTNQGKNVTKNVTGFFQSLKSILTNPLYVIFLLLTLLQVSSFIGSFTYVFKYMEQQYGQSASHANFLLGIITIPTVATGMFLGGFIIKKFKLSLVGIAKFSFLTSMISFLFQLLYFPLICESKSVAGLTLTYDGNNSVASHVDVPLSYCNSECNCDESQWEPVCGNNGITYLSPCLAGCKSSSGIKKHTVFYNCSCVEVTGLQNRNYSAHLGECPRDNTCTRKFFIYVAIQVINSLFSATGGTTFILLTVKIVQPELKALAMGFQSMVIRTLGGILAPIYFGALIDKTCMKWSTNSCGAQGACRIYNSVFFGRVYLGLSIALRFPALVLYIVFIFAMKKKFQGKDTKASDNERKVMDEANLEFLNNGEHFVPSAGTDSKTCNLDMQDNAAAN

With octapeptide cholecystokinin 8, the Km (called the affinity constant) of CCK-8 transport, [^3H]CCK-8 accumulation 0.1-40 uM, 3 min, in HEK293-OATP1B3 cells pretreated with bortezomib (50 nM, 7 h), Michaelis-Menten fit was 4.9 µM and the Km (called the affinity constant) of CCK-8 transport, [^3H]CCK-8 accumulation 0.1-40 uM, 3 min, in HEK293-OATP1B3 cells pretreated with vehicle control, Michaelis-Menten fit amounted to 5.8 µM.
